Measured values: PMC12799932, “Development of a VHH that inhibits the binding of neuronal pentraxin 2 to a postsynaptic glutamate receptor, AMPAR” (The Journal of Biological Chemistry, 2025)
Values joined by “and” are separate entries in the source; they are usually repeats but may differ in a detail not shown here. Equal entries are not always repeated.

Assays:
[1] = target: NP2 CC2 (construct consisting of only the CC2 region of NP2) (human) (UniProt P47972); test: mass photometry; Two^MP, 200 nM NP, 10 mM Hepes-NaOH pH 7.4, 150 mM NaCl, with 3 mM CaCl2, 25 °C
[2] = target: NP2 CC2 (construct consisting of only the CC2 region of NP2) (human) (UniProt P47972); test: mass photometry; Two^MP, 200 nM NP, 10 mM Hepes-NaOH pH 7.4, 150 mM NaCl, without CaCl2, 25 °C
[3] = target: T1, NP1 PTX (pentraxin domain of neuronal pentraxin 1) (human, UniProt Q15818); test: SPR; Biacore 8K; NP1 PTX or NPR PTX (~600 RU) amine-coupled on CM5, VHH N1 analyte 625-10,000 nM, multicycle kinetics; 10 mM Hepes-NaOH pH 7.4, 150 mM NaCl, 0.005% Tween-20, 3 mM CaCl2, 25 °C; conditions: both partners purified
T1 construct: neuronal pentraxin 1 (NP1, Nptx1), human, pentraxin (PTX) domain; also called PTX domain of NP1; source: Expi293 cells, secreted, purified (Ni-NTA, SEC)
T1 sequence (Q15818 226-428): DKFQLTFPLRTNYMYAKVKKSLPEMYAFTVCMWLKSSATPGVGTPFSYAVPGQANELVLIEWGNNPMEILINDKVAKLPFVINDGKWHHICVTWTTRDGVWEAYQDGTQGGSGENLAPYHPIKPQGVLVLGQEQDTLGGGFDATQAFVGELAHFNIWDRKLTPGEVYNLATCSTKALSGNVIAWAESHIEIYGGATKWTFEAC

[4] = target: T2, NPR PTX (pentraxin domain of neuronal pentraxin receptor) (human, UniProt O95502); test: as above; conditions: both partners purified
T2 construct: neuronal pentraxin receptor (NPR, Nptxr), human, pentraxin (PTX) domain; also called PTX domain of NPR; source: Expi293 cells, secreted, purified (Ni-NTA, SEC)
T2 sequence (O95502 292-494): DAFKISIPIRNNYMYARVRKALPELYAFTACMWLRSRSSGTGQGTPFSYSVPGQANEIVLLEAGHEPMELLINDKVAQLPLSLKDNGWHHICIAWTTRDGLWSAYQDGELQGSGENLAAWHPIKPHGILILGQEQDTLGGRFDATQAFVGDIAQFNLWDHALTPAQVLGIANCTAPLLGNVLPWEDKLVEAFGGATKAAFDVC

NP2 PTX D407A = target: T3, NP2 PTX D407A (human, UniProt P47972, D407A); test: SPR; Biacore 8K; NP2 PTX single alanine mutants (~800 RU) amine-coupled on CM5, VHH N1 analyte 1.25-20 nM (D407A) or 62.5-1000 nM (V412A, W419A); 10 mM Hepes-NaOH pH 7.4, 150 mM NaCl, 0.005% Tween-20, 3 mM CaCl2; conditions: both partners purified
T3 construct: neuronal pentraxin 2 (NP2, Nptx2), human, pentraxin (PTX) domain with D407A; also called D407A_(NP2 PTX); source: Expi293 cells, secreted, purified (same procedure as NP2 PTX WT)

[5] = target: T4, NP2 PTX (pentraxin domain of neuronal pentraxin 2) (human) (UniProt P47972); test: SPR; competition; Biacore T200; GluA4 ATD (~800 RU) amine-coupled on CM5, 500 nM NP2 PTX mixed with 0-1000 nM VHH N1 as analyte; 10 mM Hepes-NaOH pH 7.4, 150 mM NaCl, 3 mM CaCl2, 0.005% Tween-20
T4 sequence: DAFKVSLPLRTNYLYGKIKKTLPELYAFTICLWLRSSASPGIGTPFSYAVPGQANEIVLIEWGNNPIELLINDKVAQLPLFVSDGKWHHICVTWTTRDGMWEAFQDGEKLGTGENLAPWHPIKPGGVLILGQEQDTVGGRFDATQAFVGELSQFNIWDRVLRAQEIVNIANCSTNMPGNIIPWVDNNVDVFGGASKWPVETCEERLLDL

[6] = target: NP2 C95S (full-length NP2 with cysteine 95 mutated to serine) (human) (UniProt P47972); test: mass photometry; Two^MP; equal amounts of VHH N1 and NP2 N- or NP2 C95S, 200 nM each (as monomer); 10 mM Hepes-NaOH pH 7.4, 150 mM NaCl, without CaCl2, 25 °C
[7] = target: NP2 N- (neuronal pentraxin 2 in which CC1 was deleted) (human); test: as above
[8] = target: T4, NP2 PTX (pentraxin domain of neuronal pentraxin 2) (human); test: SPR; Biacore 8K; NP2 N- or NP2 PTX amine-coupled on CM5, VHH N1 analyte 5-80 nM, single-cycle kinetics; 10 mM Hepes-NaOH pH 7.4, 150 mM NaCl, 0.005% Tween-20, without CaCl2, 25 °C
[9] = target: NP2 N- (neuronal pentraxin 2 in which CC1 was deleted) (human); test: as above
[10] = target: T5, HA-NP2 (HA-tagged mouse full-length NP2) (Mus musculus, UniProt O70340); test: immunostaining of cells or tissue; HEK293 cells expressing HA-tagged mouse NPs, fixed with 4% paraformaldehyde, permeabilized, stained with 1 μg/ml VHH N1, detected by rabbit anti-His; anti-HA as expression control; conditions: one partner purified
T5 construct: source: HEK293, transfected, in fixed cells; HEK293 tSA cells, cell supernatant; not shown: HA, N-terminal, kept

[11] = target: T4, NP2 PTX (pentraxin domain of neuronal pentraxin 2) (human); test: SPR; Biacore 8K; NP2 N- (~800 RU) or NP2 PTX (~600 RU) amine-coupled on CM5, VHH N1 analyte 1.25-20 nM, single-cycle kinetics; 10 mM Hepes-NaOH pH 7.4, 150 mM NaCl, 0.005% Tween-20, 3 mM CaCl2, 25 °C
[12] = target: NP2 N- (neuronal pentraxin 2 in which CC1 was deleted) (human); test: as above
[13] = target: T6, GluA4 ATD (amino-terminal domain of human GluA4), recombinant (human, UniProt P48058 21-402); test: SPR; Biacore T200; GluA4 ATD (~400 RU) amine-coupled on CM5, NP2 constructs as analytes (31.25-2000 nM NP2 N- and NP2 PTX, 62.5-4000 nM NP2 CC2); 10 mM Hepes-NaOH pH 7.4, 150 mM NaCl, 0.005% Tween-20, with 3 mM CaCl2; conditions: both partners purified
T6 construct: AMPA-type glutamate receptor subunit GluA4, human, amino-terminal domain (ATD); source: Expi293 cells, secreted, purified (Ni-NTA, SEC)
T6 sequence (looked up): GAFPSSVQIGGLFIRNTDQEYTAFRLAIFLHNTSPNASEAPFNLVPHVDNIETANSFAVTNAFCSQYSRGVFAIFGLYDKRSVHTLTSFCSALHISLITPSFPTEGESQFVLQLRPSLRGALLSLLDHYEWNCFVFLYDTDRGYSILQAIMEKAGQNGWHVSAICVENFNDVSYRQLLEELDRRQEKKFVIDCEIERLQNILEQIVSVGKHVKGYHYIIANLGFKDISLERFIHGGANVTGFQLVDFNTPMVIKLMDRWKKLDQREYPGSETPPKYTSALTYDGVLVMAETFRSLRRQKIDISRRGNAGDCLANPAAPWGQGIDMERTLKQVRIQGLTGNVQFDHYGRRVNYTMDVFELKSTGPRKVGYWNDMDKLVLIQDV

VHH N1 (alpaca) [14] = test: ITC; iTC200; 50 μM NP2 PTX from the syringe into 5 μM VHH N1 in the cell; 10 mM Hepes-NaOH pH 7.4, 150 mM NaCl, 0 mM CaCl2, 25 °C
VHH N1 (alpaca) [15] = test: ITC; iTC200; 50 μM NP2 PTX from the syringe into 5 μM VHH N1 in the cell; 10 mM Hepes-NaOH pH 7.4, 150 mM NaCl, 3 mM CaCl2, 25 °C
[16] = target: T7, NP2 N- (neuronal pentraxin 2 in which CC1 was deleted) (human); test: mass photometry; Two^MP, 200 nM NP, 10 mM Hepes-NaOH pH 7.4, 150 mM NaCl, with 3 mM CaCl2, 25 °C; conditions: both partners purified
T7 chain: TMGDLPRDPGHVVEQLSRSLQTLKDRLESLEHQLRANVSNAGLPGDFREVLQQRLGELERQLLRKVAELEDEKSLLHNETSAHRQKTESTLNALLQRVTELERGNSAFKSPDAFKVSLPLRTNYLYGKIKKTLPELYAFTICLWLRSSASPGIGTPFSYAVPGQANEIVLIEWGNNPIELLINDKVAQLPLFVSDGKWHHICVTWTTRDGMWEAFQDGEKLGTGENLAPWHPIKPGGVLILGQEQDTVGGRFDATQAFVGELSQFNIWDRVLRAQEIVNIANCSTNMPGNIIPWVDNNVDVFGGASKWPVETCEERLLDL

[17] = target: T7, NP2 N- (neuronal pentraxin 2 in which …); test: mass photometry; Two^MP, 200 nM NP, 10 mM Hepes-NaOH pH 7.4, 150 mM NaCl, without CaCl2, 25 °C; conditions: both partners purified

NP2 CC2 (construct consisting of only the CC2 region of NP2) (from UniProt P47972 16-431) (domain or fragment)
stoichiometry N [1]: > 3 | stoichiometry N [2]: > 3

B1: VHH N1 (VHH)
VHH: QLQLVESGGGLVQAGDSLKLSCIDSGSTFNLYAMGWFRQAPGKEREFVASISRGGGSSYYADSQLKGRFTISRDNAKNTVYLQMNSLKPEDTAVYYCNARAGRYDYWGQGTQVTVSS
notes: selected by phage display from an immune library of an alpaca immunized with NP2 N-; Cloned into the pRA2 vector with a C-terminal His-tag; detected by anti-His in the cell staining; also called N1 VHH; VHH for NP2; source: E. coli BL21 (DE3), purified (Ni-NTA, SEC); not shown: His-tag, C-terminal, kept
binding result [3]: no binding (tested: 10,000 nM) | binding result [4]: no binding (tested: 10,000 nM) | fold change of affinity against NP2 PTX WT (NP2 PTX D407A): 3 times lower | IC50 [5]: 216 nM | stoichiometry N [6]: 1 | stoichiometry N [7]: 1 | Kd [8]: 11.6 nM | koff [8]: 0.0249 s⁻¹ | kon [8]: 2.21e+06 M⁻¹ s⁻¹ | Kd [9]: 33.5 nM | koff [9]: 0.00514 s⁻¹ | kon [9]: 156000 M⁻¹ s⁻¹ | binding result [10]: binds | Kd [11]: 1.14 nM | koff [11]: 0.00208 s⁻¹ | kon [11]: 1.92e+06 M⁻¹ s⁻¹ | Kd [12]: 1.41 nM | koff [12]: 0.00524 s⁻¹ | kon [12]: 3.7e+06 M⁻¹ s⁻¹

B2: NP2 PTX (pentraxin domain of neuronal pentraxin 2) (domain or fragment, human)
chain: DAFKVSLPLRTNYLYGKIKKTLPELYAFTICLWLRSSASPGIGTPFSYAVPGQANEIVLIEWGNNPIELLINDKVAQLPLFVSDGKWHHICVTWTTRDGMWEAFQDGEKLGTGENLAPWHPIKPGGVLILGQEQDTVGGRFDATQAFVGELSQFNIWDRVLRAQEIVNIANCSTNMPGNIIPWVDNNVDVFGGASKWPVETCEERLLDL
notes: neuronal pentraxin 2 (NP2, Nptx2), human, pentraxin (PTX) domain; also called NP2 PTX WT; PTX domain of NP2; source: Expi293 cells, secreted, purified (Ni-NTA, SEC)
Kd [13]: 13600 nM | Kd (VHH N1 (alpaca) [14]): 57.5 nM | dH (VHH N1 (alpaca) [14]): -7.53 kcal/mol | stoichiometry N (VHH N1 (alpaca) [14]): 0.781 | Kd (VHH N1 (alpaca) [15]): 19.7 nM | dH (VHH N1 (alpaca) [15]): -7.36 kcal/mol | stoichiometry N (VHH N1 (alpaca) [15]): 0.913

B3: NP2 N- (neuronal pentraxin 2 in which CC1 was deleted) (domain or fragment)
chain: TMGDLPRDPGHVVEQLSRSLQTLKDRLESLEHQLRANVSNAGLPGDFREVLQQRLGELERQLLRKVAELEDEKSLLHNETSAHRQKTESTLNALLQRVTELERGNSAFKSPDAFKVSLPLRTNYLYGKIKKTLPELYAFTICLWLRSSASPGIGTPFSYAVPGQANEIVLIEWGNNPIELLINDKVAQLPLFVSDGKWHHICVTWTTRDGMWEAFQDGEKLGTGENLAPWHPIKPGGVLILGQEQDTVGGRFDATQAFVGELSQFNIWDRVLRAQEIVNIANCSTNMPGNIIPWVDNNVDVFGGASKWPVETCEERLLDL
modifications: Exact start is not in the text (Figures 1B and S1); it is set by convention just after CC1 and its Cys95, keeping CC2, PTX and the native C-terminus. Human is inferred from the D407/V412/W419 …
stoichiometry N [16]: 9 and 12 | stoichiometry N [17]: 6 and 3
